Substrate in series [1]: CC(C)(O/N=C(\C(=O)N[C@@H]1C(=O)N2C(C(=O)[O-])=C(C[n+]3ccccc3)CS[C@H]12)c1csc(N)n1)C(=O)O
To be noted: Escherichia coli; DH5alpha CL1179.

Substrate in series [2]: CC(=O)OCC1=C(C(=O)O)N2C(=O)[C@@H](NC(=O)Cc3cccs3)[C@H]2SC1
The series is described as follows: (§1) Activity of Escherichia coli DH5alpha beta-lactamase TEM-158 by microacidimetric method.

Substrate in series [3]: CC(C)(O/N=C(\C(=O)N[C@@H]1C(=O)N2C(C(=O)[O-])=C(C[n+]3ccccc3)CS[C@H]12)c1csc(N)n1)C(=O)O
The series is described as §1.

Substrate in series [4]: CC1(C)S[C@@H]2[C@H](NC(=O)Cc3ccccc3)C(=O)N2[C@H]1C(=O)O
The series is described as §1.

Substrate in series [5]: CC1(C)S[C@@H]2[C@H](NC(=O)[C@H](C(=O)O)c3ccsc3)C(=O)N2[C@H]1C(=O)O
Described as §1.

Substrate in series [6]: CC1(C)S[C@@H]2[C@H](NC(=O)[C@H](N)c3ccc(O)cc3)C(=O)N2[C@H]1C(=O)O
The series is described as §1.

Substrate in series [7]: CCN1CCN(C(=O)N[C@@H](C(=O)N[C@@H]2C(=O)N3[C@@H]2SC(C)(C)[C@@H]3C(=O)O)c2ccccc2)C(=O)C1=O
The series is described as §1.

Substrate in series [8]: CC(=O)OCC1=C(C(=O)O)N2C(=O)[C@@H](NC(=O)Cc3cccs3)[C@H]2SC1
Nature of the series: (§2) Activity of Escherichia coli DH5alpha beta-lactamase TEM-1 by microacidimetric method.

Substrate in series [9]: CC(C)(O/N=C(\C(=O)N[C@@H]1C(=O)N2C(C(=O)[O-])=C(C[n+]3ccccc3)CS[C@H]12)c1csc(N)n1)C(=O)O
The series is described as §2.

Substrate in series [10]: CC1(C)S[C@@H]2[C@H](NC(=O)Cc3ccccc3)C(=O)N2[C@H]1C(=O)O
The series is described as §2.

Substrate in series [11]: CC1(C)S[C@@H]2[C@H](NC(=O)[C@H](C(=O)O)c3ccsc3)C(=O)N2[C@H]1C(=O)O
The description is as §2.

Substrate in series [12]: CC1(C)S[C@@H]2[C@H](NC(=O)[C@H](N)c3ccc(O)cc3)C(=O)N2[C@H]1C(=O)O
The series is described as §2.

Substrate in series [13]: CCN1CCN(C(=O)N[C@@H](C(=O)N[C@@H]2C(=O)N3[C@@H]2SC(C)(C)[C@@H]3C(=O)O)c2ccccc2)C(=O)C1=O
The description is as §2.

Substrate in series [14]: CO/N=C(\C(=O)N[C@@H]1C(=O)N2C(C(=O)O)=C(COC(C)=O)CS[C@H]12)c1csc(N)n1
The description is as §2.

Substrate in series [15]: CC(C)(O/N=C(\C(=O)N[C@@H]1C(=O)N2C(C(=O)[O-])=C(C[n+]3ccccc3)CS[C@H]12)c1csc(N)n1)C(=O)O
To be noted: Escherichia coli; TO799.

Residue numbers refer to the chain shown, from its start.

B1: Beta lactamase TEM-152 (Escherichia coli), Q09Q13 (protein)
chain: MSIQHFRVALIPFFAAFCLPVFAHPETLVKVKDAEDQLGARVGYIELDLNSGKILESFRPEERFPMVSTFKVLLCGAVLSRVDAGQEQLGRRIHYSQNDLVEYSPVTEKHLTDGMTVRELCSAAITMSDNTAANLLLTTIGGPKELTAFLHNMGDHVTRLDHWEPELNEAIPNDERDTTMPAAMATTLRKLLTGELLTLASRQQLIDWMEADKVAGPLLRSALPAGWFIADKSGAGKRGSRGIIAALGPDGKPSRIVVIYTTGSQATMDERDRQIAEIGASLIKHW
For the protein B1, in series [1], the kcat was found to be 40 s⁻¹.

B2: CMT-type beta lactamase (Escherichia coli), A5HJU3 (protein)
chain: B1 chain with V67L, H162S, K237E
Take B2: the Km in [2] was found to be 170 µM; in series [4], 38.1 µM; in series [5] it was 143 µM; in [6] it was 24.8 µM; in [7], 46 µM. Also, the kcat in series [2] was 0.26 s⁻¹; in series [3] it was 1.7 s⁻¹; in [4] it was 18.5 s⁻¹; in [5], 4.2 s⁻¹; in [6] it was 14.4 s⁻¹; in [7] it was 17.1 s⁻¹.

B3: Beta-lactamase TEM (Escherichia coli), P62593 (protein)
chain: B1 chain with V67M, H162R, K237E, D272N
On to B3, for which the kcat in series [8] was 165 s⁻¹; in [9] it was under 0.1 s⁻¹; in series [10], 1500 s⁻¹; in [11], 135 s⁻¹; in series [12], 1120 s⁻¹; in series [13] it was 1250 s⁻¹. Further, in series [14], the kcat was under 0.1 s⁻¹. The Km in series [10] amounted to 34 µM; in series [11], 36 µM; in series [12], 15 µM; in series [13], 55 µM.

B4: Beta-lactamase TEM-125 (Escherichia coli), Q6GWS8 (protein)
chain: B1 chain with F14L, V67L, H162S, W163R, K237E
For B4, the turnover number (kcat) in [15] stood at 3.7 s⁻¹.

As a reminder, the kcat is the number of substrate molecules converted per active site and unit of time at saturation. A word on the Km: it is the substrate concentration at which the rate is half of its maximum.

These data come from ChEMBL document CHEMBL1137638, “TEM-158 (CMT-9), a new member of the CMT-type extended-spectrum beta-lactamases” (Antimicrob Agents Chemother, 2007).
